From patent publication US20220204624A1

What was measured:
Assay in all cases: Octet (BLI), global fit, 1:1 binding model
[1] = target: cynomolgus CTLA-4 (cynomolgus) (UniProt G7PL88)
[2] = target: cynomolgus LAG-3 (cynomolgus)
[3] = target: human CTLA-4 (human) (UniProt P16410)
[4] = target: human LAG-3 (human) (UniProt P18627)
Sequence of human LAG-3 (human) (P18627 23-450 limits assumed): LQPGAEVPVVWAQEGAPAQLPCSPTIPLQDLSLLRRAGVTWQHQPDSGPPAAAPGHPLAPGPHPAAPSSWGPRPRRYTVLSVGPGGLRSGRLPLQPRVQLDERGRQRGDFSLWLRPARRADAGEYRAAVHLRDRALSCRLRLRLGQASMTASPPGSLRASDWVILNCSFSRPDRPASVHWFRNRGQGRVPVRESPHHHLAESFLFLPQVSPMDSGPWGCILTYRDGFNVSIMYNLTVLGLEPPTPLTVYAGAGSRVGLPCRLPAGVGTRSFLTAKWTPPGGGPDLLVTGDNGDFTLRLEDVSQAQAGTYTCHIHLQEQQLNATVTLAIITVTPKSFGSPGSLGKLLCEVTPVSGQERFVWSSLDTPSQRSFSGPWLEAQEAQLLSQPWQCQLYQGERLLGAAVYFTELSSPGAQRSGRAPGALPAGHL

Sequence of cynomolgus CTLA-4 (cynomolgus) (G7PL88 entry or part of it limits assumed, form in doubt): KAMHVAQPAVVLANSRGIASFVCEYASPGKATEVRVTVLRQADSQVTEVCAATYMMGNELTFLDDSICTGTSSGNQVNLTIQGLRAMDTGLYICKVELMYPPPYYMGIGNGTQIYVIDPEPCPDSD
Sequence of human CTLA-4 (human) (P16410 36-161 limits assumed): as the sequence (G7PL88 entry or part of it limits assumed, form in doubt) above, with N14S, M106L counted along it

Kd [1]: 17.6 nM | Kd [2]: 1.3 nM | Kd [3]: 4.6 nM | Kd [4]: 1.4 nM
Substance: XmAb22841 (bispecific antibody)
